# Source: the supplement of paper PMC12042874
# ± gives the uncertainty stated by the source.
# Assay: amyloid nucleation score (Sup35N fusion, yeast selection) (log enrichment); library NNK1; higher = more nucleation; inactive = no reads after selection
# Outline: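 Peptides of 20 random codons, each fused to Sup35N, were expressed in psi-negative yeast. Cells were induced with 100 μM copper sulfate for 24 hours and grown 7 days at 30°C on medium lacking adenine and uracil, and plasmid inserts before and after selection were Illumina-sequenced. Nucleation scores are DiMSum log enrichments of output over input reads, centred on the mode score of non-aggregating sequences, and sequences under 100 input reads were excluded.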
row,Substance,amyloid nucleation score
1,LNIRVIRGLGRMNAPVVSDL,1.32 ± 0.57
2,AHTLSYVFWLYHMDQCVLFV,-0.127 ± 1.4
3,ILSIFLYWAILLRSCQYLYW,-0.949 ± 0.4
4,GKLVVFNFL,8.483 ± 0.048
5,ITKSRLWHDWLTRRVMTTDC,-0.241 ± 1.4
6,STHCFWVTPGD,0.483 ± 0.83
7,WKIRKKA,0.155 ± 0.7
8,VSSGRRIGCVSPGSGEAREW,0.376 ± 0.61
9,LYASASADHSRQRREGTPVL,-0.54 ± 0.59
10,MFDGEIFSYFNCTIV,5.67 ± 0.051
11,SWYGVYPFEIGFESGLESTL,-0.429 ± 0.41
12,SAVTDQLMV,0.119 ± 0.45
13,NPCWTVYLEFL,0.186 ± 0.27
14,IMYCLFGHLFLLRIGGFIMG,0.101 ± 0.68
15,DNQVLCYECRGYWMQTVHVL,0.069 ± 0.97
16,MYINGWYWTDGFIVNYQWMG,0.626 ± 0.55
17,STSILGANFALVWSEVVTVS,-0.023 ± 0.66
18,RQSWPGYFVCSYQCVRMGNR,-0.084 ± 0.3
19,YQQSCWVLYGTNLRYSNQSW,1.74 ± 0.14
20,SRTVTLFHHASNKSFHSSVS,-0.074 ± 0.9
21,FRVQVTYIFRSLEICDPTVG,inactive
22,FVHDLWLGYGVNFLIAVMCS,0.209 ± 0.34
23,ASYMYAPSIFYSERLKWNPS,0.226 ± 0.78
24,VVYDGIMSWIYYCRFVVDAV,inactive
25,RICGGTSFDSRNGLKLGRKG,0.034 ± 0.64

row,Substance,amyloid nucleation score
1,QKSIDLYFEKRHTISTQNR,-0.455 ± 0.56
2,NRACRMMQWS,-0.441 ± 1.2
3,RTGRAYLWGSWSLEHHNLGG,inactive
4,LVLIAA,inactive
5,YNRIIYYCGVM,0.782 ± 0.97
6,DGTVGSYCMIFWELYRDNFF,-0.761 ± 1.2
7,SNRALMADLKERNVINTPIN,-0.385 ± 1.9
8,WDFFYLMSMLPRDEVGFL,0.756 ± 0.46
9,DSLLEIGRSGVNELVGGLAD,-0.422 ± 1.2
10,VRLIRGGFDGHADNAVCRWQ,0.279 ± 0.7
11,MADEWLCQKCGSRVT,-0.207 ± 0.59
12,GDRKACSVRCRHATDKICAD,-0.309 ± 0.57
13,SVCGH,-0.237 ± 0.37
14,LGRSWWYYSQLWDSRHLSF,-0.38 ± 1.5
15,VQNDTTLHVIFILGRAW,2.44 ± 0.12
16,SMFYLSKFAVEFWRRMS,-0.097 ± 0.44
17,LVFPWIISFCQRMWMLYQRY,0.499 ± 0.35
18,VWMVMSYPDHTLVLLLTG,-1.33 ± 0.57
19,CLGDTWWNMNKSGTEVVCPV,0.858 ± 1.1
20,DGHGRYA,inactive
21,FVFHVGDDARGSCHKCRLWN,0.665 ± 0.62
22,SLKSSCRKNRLM,0.048 ± 0.5
23,PPRYLMRDLTHWSPYR,1.34 ± 0.7
24,ISECDICERR,-0.236 ± 0.68
25,TCCVKCGCRVQRMMMCLV,-0.003 ± 0.8

row,Substance,amyloid nucleation score
1,ANGILV,0.499 ± 0.28
2,EHKWAANLDDMVHLDRHNMQ,0.435 ± 0.72
3,LVTNAYTYSSTGIYDYVRPG,0.093 ± 0.81
4,PSTDLWWLGNTLSIGNRIVY,-0.879 ± 0.69
5,RDCWQ,-0.571 ± 0.3
6,RIFLLVTHVACAMPLFHKTR,0.83 ± 0.75
7,TVNCGQSSMWDFWTGLTECG,-0.22 ± 0.75
8,VKTYRPVSRGAKNKVRLAQG,0.642 ± 0.49
9,DNFMSAGRLWSDSSADLIIT,0.277 ± 0.79
10,FCKCNQVFISCLCGSTKHTG,3.59 ± 0.1
11,LVNYLICWT,-0.078 ± 0.82
12,SWRLK,3.35 ± 0.073
13,YHDVGSAVRMLYQMGPKRVF,-0.442 ± 1.4
14,VLEDCNMRGK,0.789 ± 0.36
15,HIDWSNVSYGDDRYGSGDCR,0.142 ± 0.19
16,FKMSWSTPARYNNGLTRLIF,-0.379 ± 0.63
17,ILTMVEILKTIRGSA,-0.316 ± 0.47
18,DTNTSIMHTIPRVGLNGCRR,10.02 ± 0.051
19,CVTLCSNPWDQKRFICIYRH,-0.021 ± 0.55
20,YMNTFVIRSMHSLLNGYAFS,0.429 ± 0.88
21,MSFTSAY,-0.238 ± 0.56
22,ASNAWCMYYMLATGAMEISL,-0.617 ± 0.86
23,LLCSKCGFTDQFQS,-1.09 ± 1.2
24,YCLDGAFALVVNSLWLITAA,inactive
25,RTKCKASISNIPTRWYDP,-0.469 ± 1.2

row,Substance,amyloid nucleation score
1,IGAGPRL,-0.623 ± 0.27
2,GTRWSHTWWPGTNLMLCVQG,-0.453 ± 0.26
3,WFIAL,-0.068 ± 0.61
4,PRIRSPEMDVMSPPNFLWGL,0.213 ± 0.48
5,SWLGPRWSFWFWFFIWSSGL,1.37 ± 0.74
6,QFESIGCVEWYMFGIREVFS,-0.318 ± 0.47
7,SVRCCRFGIGGYWP,-1.07 ± 1
8,VPGRWHSLCASYTLYA,0.469 ± 0.72
9,GVTYNLK,-0.685 ± 1
10,SGNCQSRFVVNGNHKC,0.371 ± 0.5
11,LTITGSFIHPI,-0.739 ± 0.79
12,MDVGIFMIMTVTRWKGCSVI,0.565 ± 0.48
13,GRYWSCEATRLCKYFGCTMR,-0.212 ± 0.48
14,LILHSNSGFNGYWVSQWNTM,-0.304 ± 0.44
15,RFSQWLPFWSVGGELQSCFC,0.239 ± 0.68
16,LKKTYYSMYL,-0.045 ± 0.33
17,VGNWYPGIG,inactive
18,NYYLVCCCKREQRLCTVGIT,6.831 ± 0.064
19,ASLTFFS,0.283 ± 0.76
20,TEMDDF,0.875 ± 0.54
21,ALYKSPLVNRSYAFLYSGA,0.964 ± 0.69
22,GRIQCHYGLSVYNGFESGTG,0.279 ± 0.83
23,GVCWRDYGLEAGTGAQVQQC,3.03 ± 0.15
24,ICQRSRAGSGSEVLT,-0.205 ± 0.49
25,MVTEDEERMANLSWHESGAY,-1.07 ± 0.74

row,Substance,amyloid nucleation score
1,MRRHLGHLTLESGNHGCLQA,inactive
2,FYTCCMSYVVWIMHVRRLAG,0.774 ± 0.56
3,LHLECLWCLARTSYF,8.244 ± 0.045
4,SHNVKSWCRYSDGQKGLCKY,1.62 ± 0.43
5,IYVYWSDISV,0.907 ± 0.42
6,WFSVDFNNHLWFQNSYSMWG,0.156 ± 0.43
7,LSSFMAAGVSLMCNTFLIWH,0.729 ± 0.51
8,PQSFWNARCPCPLNRLNGVW,-0.474 ± 0.34
9,TSCFCI,-0.133 ± 0.33
10,AYLGASREIYCYGPMYYMLP,2.97 ± 0.098
11,ASYYQWLSLFFLTNRPFFGG,-0.809 ± 1.2
12,HIWLVVKKFPNIEHSIMIGS,-0.334 ± 1.2
13,YMNNRLRWNRRHPYLSCFMS,1.1 ± 0.94
14,HLLNYIVGL,0.294 ± 0.69
15,SHEGTGLGMGAVG,-0.01 ± 0.36
16,YRDFGGN,0.076 ± 0.24
17,KVFLRMQRSSGTVKCKSQTE,-0.065 ± 0.41
18,KTTCIDTIR,0.565 ± 0.43
19,TKIHLPYCYANLVNHSVQHK,0.704 ± 0.61
20,AMEPKVWRDGLLPG,-0.471 ± 0.47
21,KYPYLYLPIRMLNRQHARVG,0.449 ± 0.62
22,CSRTRRSHSIECACCKYIFA,-0.343 ± 0.47
23,GKTISGL,0.239 ± 0.44
24,AFLTQTSHSQTT,0.048 ± 0.74
25,ILMYMWDKLNLYNIWFLRQV,0.263 ± 0.5

row,Substance,amyloid nucleation score
1,VVTSLIL,-0.999 ± 1.2
2,HWSSSVSVNGVRYTFMSTSR,-2.08 ± 2.7
3,DWSRQFYMFVNVKARLFRGT,-0.05 ± 0.69
4,YNIVMMDS,0.108 ± 0.36
5,VRFSLHDRGRQTRTCYSPWA,0.006 ± 0.36
6,RWLPPLRVRIRDHTHIITDK,2.22 ± 0.17
7,IMSKRTWWLRPRGPTACFQW,0.208 ± 0.44
8,WDTPFFCPSRNFRRATGPYP,0.983 ± 0.53
9,ILQSFSTVEHFEDLL,0.58 ± 1.2
10,SPEGSPNEHDYTIPAVRGGP,0.775 ± 0.38
11,VNTVMGTMQLKLCHKLRIVG,0.19 ± 0.71
12,GCSLLHLRVWYLSDHIIMRS,0.834 ± 0.36
13,ACHQGGMTSPNTRSTLFRVW,0.8 ± 0.51
14,AAMAYFWADRLKHGFYTW,4.74 ± 0.092
15,GTRQSDHYCVSTGLCV,0.352 ± 0.36
16,ECCQDVIFFVAQINTCIEVT,0.221 ± 0.37
17,GKSMYCYK,-0.96 ± 2.7
18,SRGRSNAALSLRKFVGGFCL,inactive
19,IYEILKVTS,inactive
20,SFVIFCRKGNWEWDD,-0.671 ± 0.37
21,INFRHA,2.57 ± 0.33
22,RDLDSSILNNFFDICTFWNK,-0.305 ± 0.5
23,AMWLFACGLWLLLPRYIGRC,-0.485 ± 1.2
24,VMAMSMLYSLMRNGKKLHFK,1.67 ± 0.6
25,FKSYPVGIRRHCHGTSMLMG,0.059 ± 0.31

row,Substance,amyloid nucleation score
1,CLSNM,inactive
2,PLVVGRVCEGYRRWCWFGRR,-0.369 ± 0.38
3,DCMIVGLHHIKVRHSLFVRW,-0.128 ± 0.33
4,TTGKFDLFGDYHRGSLYSSV,-0.768 ± 0.49
5,PFGDSAPKTIRIMAVLIFTV,-0.237 ± 1.9
6,SPFPGKEFNGIVCPLPYSMI,-0.366 ± 0.56
7,DTPNISAFYLWNLRKRLMIF,-0.023 ± 0.31
8,IISVTVFFKCARLEILNR,-0.64 ± 0.57
9,CTGPMD,0.055 ± 0.57
10,VLSFDLVTVVGNKFLVWIKR,0.276 ± 0.52
11,VYRVAKASM,-0.35 ± 1.9
12,SVASGVMFRAYCFWWAARKV,0.27 ± 0.47
13,PNSERREAMVIMFRW,0.633 ± 0.35
14,ATMYICTRHSTAYGVFHSFV,0.105 ± 1.2
15,REGLTFPRVLPIWHLFVSSD,-0.139 ± 0.32
16,RSYSSLSR,0.792 ± 0.58
17,SQLESFWVYMQLRGMTYTVA,-0.081 ± 0.31
18,HVQEDLNAVGHPLEFEMTVR,-0.979 ± 1.9
19,FYRSQMIFFYMLVAPMWGRL,-0.599 ± 0.56
20,CEGCSWFSCSF,0.749 ± 0.48
21,YVHQRGNNTSAMLAWVLPRH,-0.766 ± 0.5
22,VRFLISHRESVLKSMAGCVV,0.815 ± 0.93
